Measurements from patent publication US20090318349A1 (Novo Nordisk, published 2009).

Target: wild type human growth hormone (human, UniProt P01241 27-217)
Assay: cell-based or functional assay

Chain of wild type human growth hormone (P01241 27-217): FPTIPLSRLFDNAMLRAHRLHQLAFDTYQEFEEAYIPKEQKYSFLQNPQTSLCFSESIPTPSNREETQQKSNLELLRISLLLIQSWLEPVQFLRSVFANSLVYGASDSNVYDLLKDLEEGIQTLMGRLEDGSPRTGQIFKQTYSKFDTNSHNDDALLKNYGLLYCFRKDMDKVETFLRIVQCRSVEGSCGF

Binder	RS (relative selectivity)	Selectivity (Q141/Q40), CE
GlyPro-mTGase from S. ladakanum (enzyme) GPDSDERVTPPAEPLDRMPDPYRPSYGRAETIVNNYIRKWQQVYSHRDGRKQQMTEEQREWLSYGCVGVTWVNSGQYPTNRLAFAFFDEDKYKNELKNGRPRSGETRAEFEGRVAKDSFDEAKGFQRARDVASVMNKALENAHDEGAYLDNLKKELANGNDALRNEDARSPFYSALRNTPSFKDRNGGNHDPSKMKAVIYSKHFWSGQDRSGSSDKRKYGDPEAFRPDRGTGLVDMSRDRNIPRSPTSPGESFVNFDYGWFGAQTEADADKTVWTHGNHYHAPNGSLGAMHVYESKFRNWSDGYSDFDRGAYVVTFVPKSWNTAPDKVKQGWP	1.8	10.3
GlyPro-mTGase_Y62H_Y75F from S. ladakanum (enzyme) GPDSDERVTPPAEPLDRMPDPYRPSYGRAETIVNNYIRKWQQVYSHRDGRKQQMTEEQREWLSHGCVGVTWVNSGQFPTNRLAFAFFDEDKYKNELKNGRPRSGETRAEFEGRVAKDSFDEAKGFQRARDVASVMNKALENAHDEGAYLDNLKKELANGNDALRNEDARSPFYSALRNTPSFKDRNGGNHDPSKMKAVIYSKHFWSGQDRSGSSDKRKYGDPEAFRPDRGTGLVDMSRDRNIPRSPTSPGESFVNFDYGWFGAQTEADADKTVWTHGNHYHAPNGSLGAMHVYESKFRNWSDGYSDFDRGAYVVTFVPKSWNTAPDKVTQGWP	6.4	36.2
AlaPro-mTGase from S. mobaraensis (enzyme) APDSDDRVTPPAEPLDRMPDPYRPSYGRAETVVNNYIRKWQQVYSHRDGRKQQMTEEQREWLSYGCVGVTWVNSGQYPTNRLAFASFDEDRFKNELKNGRPRSGETRAEFEGRVAKESFDEEKGFQRAREVASVMNRALENAHDESAYLDNLKKELANGNDALRNEDARSPFYSALRNTPSFKERNGGNHDPSRMKAVIYSKHFWSGQDRSSSADKRKYGDPDAFRPAPGTGLVDMSRDRNIPRSPTSPGEGFVNFDYGWFGAQTEADADKTVWTHGNHYHAPNGSLGAMHVYESKFRNWSEGYSDFDRGAYVITFIPKSWNTAPDKVKQGWP	1	5.7

Second part, the binder after the results:

RS (relative selectivity)	Selectivity (Q141/Q40), CE	Binder
3	17.3	GlyPro-mTGase_Y75A from S. ladakanum (enzyme) GPDSDERVTPPAEPLDRMPDPYRPSYGRAETIVNNYIRKWQQVYSHRDGRKQQMTEEQREWLSYGCVGVTWVNSGQAPTNRLAFAFFDEDKYKNELKNGRPRSGETRAEFEGRVAKDSFDEAKGFQRARDVASVMNKALENAHDEGAYLDNLKKELANGNDALRNEDARSPFYSALRNTPSFKDRNGGNHDPSKMKAVIYSKHFWSGQDRSGSSDKRKYGDPEAFRPDRGTGLVDMSRDRNIPRSPTSPGESFVNFDYGWFGAQTEADADKTVWTHGNHYHAPNGSLGAMHVYESKFRNWSDGYSDFDRGAYVVTFVPKSWNTAPDKVKQGWP
3.4	19.3	GlyPro-mTGase_Y75N from S. ladakanum (enzyme) GPDSDERVTPPAEPLDRMPDPYRPSYGRAETIVNNYIRKWQQVYSHRDGRKQQMTEEQREWLSYGCVGVTWVNSGQNPTNRLAFAFFDEDKYKNELKNGRPRSGETRAEFEGRVAKDSFDEAKGFQRARDVASVMNKALENAHDEGAYLDNLKKELANGNDALRNEDARSPFYSALRNTPSFKDRNGGNHDPSKMKAVIYSKHFWSGQDRSGSSDKRKYGDPEAFRPDRGTGLVDMSRDRNIPRSPTSPGESFVNFDYGWFGAQTEADADKTVWTHGNHYHAPNGSLGAMHVYESKFRNWSDGYSDFDRGAYVVTFVPKSWNTAPDKVKQGWP
5.1	29.1	GlyPro-mTGase_Y75F from S. ladakanum (enzyme) GPDSDERVTPPAEPLDRMPDPYRPSYGRAETIVNNYIRKWQQVYSHRDGRKQQMTEEQREWLSYGCVGVTWVNSGQFPTNRLAFAFFDEDKYKNELKNGRPRSGETRAEFEGRVAKDSFDEAKGFQRARDVASVMNKALENAHDEGAYLDNLKKELANGNDALRNEDARSPFYSALRNTPSFKDRNGGNHDPSKMKAVIYSKHFWSGQDRSGSSDKRKYGDPEAFRPDRGTGLVDMSRDRNIPRSPTSPGESFVNFDYGWFGAQTEADADKTVWTHGNHYHAPNGSLGAMHVYESKFRNWSDGYSDFDRGAYVVTFVPKSWNTAPDKVKQGWP
4.6	26.3	GlyPro-mTGase_Y62H_Y75N from S. ladakanum (enzyme) GPDSDERVTPPAEPLDRMPDPYRPSYGRAETIVNNYIRKWQQVYSHRDGRKQQMTEEQREWLSHGCVGVTWVNSGQNPTNRLAFAFFDEDKYKNELKNGRPRSGETRAEFEGRVAKDSFDEAKGFQRARDVASVMNKALENAHDEGAYLDNLKKELANGNDALRNEDARSPFYSALRNTPSFKDRNGGNHDPSKMKAVIYSKHFWSGQDRSGSSDKRKYGDPEAFRPDRGTGLVDMSRDRNIPRSPTSPGESFVNFDYGWFGAQTEADADKTVWTHGNHYHAPNGSLGAMHVYESKFRNWSDGYSDFDRGAYVVTFVPKSWNTAPDKVKQGWP
